Test results: patent US8591913B2, “Methods of decreasing adipose tissue” (Toru Miyazaki, priority 2009, dated 2013)
Entries after “also recorded” stand apart in the source; their conditions may differ.

B1: mouse AIM: protein consisting of the amino acid sequence shown in SEQ ID NO: 5; recombinant, purified from HEK293T culture supernatant (protein)
chain: MAPLFNLMLAILSIFVGSCFSESPTKVQLVGGAHRCEGRVEVEHNGQWGTVCDDGWDRRDVAVVCRELNCGAVIQTPRGASYQPPASEQRVLIQGVDCNGTEDTLAQCELNYYVFDCSHEEDAGAQCENPDSDLLFIPEDVRLVDGPGHCQGRVEVLHQSQWSTVCKAGWNLQVSKVVCRQLGCGRALLTYGSCNKNTQGKGPIWMGKMSCSGQEANLRSCLLSRLENNCTHGEDTWMECEDPFELKLVGGDTPCSGRLEVLHKGSWGSVCDDNWGEKEDQVVCKQLGCGKSLHPSPKTRKIYGPGAGRIWLDDVNCSGKEQSLEFCRHRLWGYHDCTHKEDVEVICTDFDV
modifications: mouse
notes: recombinant, purified from HEK293T culture supernatant
B2: AIM: apoptosis inhibitor of macrophage, secretory protein with three SRCR domains; recombinant mouse and human AIM in Example 2, mouse AIM in Examples 3-16 (protein)
chain: ESPTKVQLVGGAHRCEGRVEVEHNGQWGTVCDDGWDRRDVAVVCRELNCGAVIQTPRGASYQPPASEQRVLIQGVDCNGTEDTLAQCELNYYVFDCSHEEDAGAQCENPDSDLLFIPEDVRLVDGPGHCQGRVEVLHQSQWSTVCKAGWNLQVSKVVCRQLGCGRALLTYGSCNKNTQGKGPIWMGKMSCSGQEANLRSCLLSRLENNCTHGEDTWMECEDPFELKLVGGDTPCSGRLEVLHKGSWGSVCDDNWGEKEDQVVCKQLGCGKSLHPSPKTRKIYGPGAGRIWLDDVNCSGKEQSLEFCRHRLWGYHDCTHKEDVEVICTDFDV

Tests used:
[1] = test system: 3T3-L1 preadipocytes; test: Differentiation of 3T3-L1 preadipocytes into mature adipocytes, oil-red-o staining; assay type: cell-based, mouse
Protocol: In order to examine how AIM produced by the macrophages infiltrating the adipose tissues works on surrounding adipocytes, an experiment in which AIM was loaded during a culture process of differentiating 3T3-L1 preadipocytes into the mature adipocytes was performed.
A recombinant mouse AIM protein and a recombinant human AIM protein were used as AIM. Those recombinant AIM proteins were prepared by culturing human-derived HEK293T cells transfected with a vector expressing mouse AIM or human AIM and isolating and purifying the protein from its culture supernatant. The same recombinant AIM proteins were also used as AIM in other examples shown below. AIM was loaded by adding AIM at a concentration of 5 μg/mL to the culture medium.
Differentiation induction (Induction) of the 3T3-L1 cells was initiated by first culturing the 3T3-L1 cells for 4 days (day −2 to day 2) to proliferate the cells (Cell proliferation) and subsequently culturing the cells in a culture medium containing insulin, dexamethasone (DEX), and isobutylmethylxanthine (IBMX) for 2 days (day 2 to day 4). The differentiation induction was further continued by culturing the cells in a culture medium containing insulin for 2 days (day 4 to day 6).
After the period of the differentiation induction (day 2 to day 6), the culture was continued in a culture medium not containing those differentiation-inducing factors. Then, the cells on the 10th day (day 12) after the initiation of the stimuli for differentiation induction were stained with oil-red-o, and the differentiation of the 3T3-L1 cells to mature adipocytes was observed.
In addition, using a FAS inhibitor (C75) in place of AIM, the FAS inhibitor at a concentration of 25 μM was loaded according to the schedules (d) and (f), and as was the case with the above-mentioned AIM, the cells were collected on the 2nd day (day 4: schedule (d)) and 10th day (day 12: schedule (f)) after the initiation of the differentiation induction, and the enzyme activity of FAS was measured.
FIG. 12A and FIG. 12B show the results of staining the cells with oil-red-o and analyzing the gene expression by RT-PCR on the 2nd day (day 4) after the initiation of the differentiation induction in the case of loading no AIM according to the schedule (a) (None), the case of loading AIM according to the schedule (d) (AIM (5 μg/mL)), and the case of loading the FAS inhibitor according to the schedule (d) (C75 (25 μM)), respectively.

[2] = test system: mature adipocytes (differentiated 3T3-L1 cells); test: Induction of lipolysis in mature 3T3-L1 adipocytes (lipid droplets, glycerol and free fatty acid efflux); assay type: cell-based, mouse
Protocol: The effect of AIM on mature adipocytes was examined.
Then, the cells on the 10th day (day 12) after the initiation of the stimuli for differentiation induction were stained with oil-red-o. The number of cells having lipid droplets was counted. Further, the diameter of lipid droplets was measured in the cells having lipid droplets. For comparison, the number of the cells was counted and the diameter of lipid droplets was measured for the cells cultured in the above-mentioned schedules (a) and (d).
Further, the supernatant of the culture medium after the cells were cultured while loading AIM according to the schedule (e) was collected, and amounts of glycerol and free fatty acid (FFA) contained in the supernatant were measured by ELISA. For the comparison, the amounts of glycerol and free fatty acid in the culture supernatant obtained according to the schedule (a) were also measured.
In order to avoid adsorption of free fatty acid to albumin contained in the culture medium, the culture medium supplemented with 10% FBS (fetal bovine serum) was exchanged to a serum-free culture medium on the 10th day (day 12) after the initiation of the differentiation induction, further the cells were cultured in the serum-free culture medium for 6 hours, and subsequently the amounts of glycerol and free fatty acid contained in the supernatant of the serum-free culture medium were measured.
FIG. 7A and FIG. 7B illustrate the evaluation results of the number (per 10^4 μm^2) of cells having lipid droplets (Droplet (+) cells) and the relative diameter of lipid droplets (%) obtained according to the schedules (a), (d), and (e) (Exp. a, d, and e), respectively. The relative diameter of lipid droplets illustrated in FIG. 7B was calculated by defining the diameter of lipid droplets in the cells obtained according to the schedule (a) without AIM loading as 100%. FIG. 8A and FIG. 8B illustrate the concentration of glycerol (Glycerol Efflux, mM) and the concentration of free fatty acid (FFA Efflux, ×10 mM) in the culture medium obtained according to the schedules (a) and (e) (Exp. a and e), respectively.
In addition, FIG. 13A and FIG. 13B illustrate the results of measuring the glycerol concentration (glycerol efflux, mM) and the free fatty acid concentration (FFA efflux, ×10 mM) in the culture medium on the 10th day (day 12) after the initiation of the differentiation induction in the case of loading no AIM according to the schedule (a) (None), the case of loading AIM according to the schedule (f) (AIM), and the case of loading the FAS inhibitor according to the schedule (f) (C75), respectively.

[3] = test system: FAS domains; test: Co-immunoprecipitation of FLAG-tagged FAS regions with HA-tagged AIM in HEK293T cells; assay type: binding; settings: HA-tagged mouse AIM
Text: Further, it was attempted to map a binding region of FAS to AIM. FAS has the following distinct seven functional domains, i.e., ketoacyl synthase (KS), malonyl/acetyl transferase (MAT), dehydrase (DH), enoylreductase (ER), ketoreductase (KR), acyl carrier protein (ACP), and thioesterase (TE), as illustrated in FIG. 34A. There is a central core (CC) between the DH domain and the ER domain. It is believed that the central core has no known catalytic function and plays a structural role in stabilization of the dimer. FIG. 34A illustrates FAS dimerized through head-to-tail interaction and major functions of its respective regions.
Thus, an association of each region in FAS tagged with FLAG with AIM tagged with HA was examined by a co-precipitation study. That is, each domain from FAS tagged with FLAG at the N terminus was expressed in HEK293T cells in which mouse AIM tagged with HA was stably expressed. Then, the association of each region with AIM was examined by a co-immunoprecipitation study using an anti-FLAG antibody and an anti-HA antibody. However, AIM was not bound to an N terminal region including the KS and MAT domains (see FIG. 34A) involved in initial acyl chain assembly (i.e., condensation of acetyl group and malonyl group to 3-ketobutyryl-ACP associated with release of carbon dioxide). Therefore, it was thought that AIM affected elongation of a fatty acid chain (which involves ER and DH) and the release of synthesized palmitate (which depends on TE). Over-expression of ER or KR led to death of many cells. This caused the reduction of the signals in WB using the cell lysates of them [lower panel in FIG. 34B, lanes: ER and KR).

[4] = mouse AIM, schedule (e), compared with schedule (a)

Row | Molecule | differentiation of 3T3-L1 cells derived from mice / differentiation inhibitory function ([1]; mouse AIM and human AIM compared, in vitro) | lipolysis induction function in adipocytes derived from mice ([2]; mouse AIM and human AIM compared, same range of concentrations in vitro) | increase of the number of dead cells due to the loading of AIM ([1]; 3T3-L1 cells loaded with AIM) | differentiation of the 3T3-L1 cells to the mature adipocytes ([1]; AIM continuously loaded day -2 to day 12, data not shown) | differentiation of the 3T3-L1 cells ([1]; mouse or human rAIM 5 μg/mL, schedule (b): day 2 to day 12, stained day 12) | differentiation of the 3T3-L1 cell ([1]; mouse or human rAIM 5 μg/mL, schedule (d): early phase of differentiation induction only (day 2 to day 4), stained day 12) | differentiation of the 3T3-L1 cells to the mature adipocytes ([1]; schedule (c): AIM only before differentiation induction (day -2 to day 2)) | concentration of free fatty acid in the culture supernatant [2, 4] | concentration of glycerol in the culture supernatant [2, 4] | diameter of lipid droplets contained in adipocytes, relative to schedule (a) ([2]; mouse AIM, schedule (e): day 6 to day 12, schedule (a) without AIM defined as 100%) | number of the cells having lipid droplets ([2]; mouse AIM, schedule (e): day 6 to day 12 after differentiation, compared with schedule (a) without AIM) | binding to the CC (central core) domain of FAS ([3]; FLAG-tagged domain) | binding to the DH domain of FAS ([3]; FLAG-tagged domain) | binding to the ER domain of FAS ([3]; FLAG-tagged domain) | binding to the TE domain of FAS ([3]; FLAG-tagged domain) | binding to the N terminal region of FAS including the KS and MAT domains ([3]; FLAG-tagged region)
1 | B1 | inhibited; also recorded: similarly exerted | similarly exerted |  |  |  |  |  |  |  |  |  |  |  |  |  | 
2 | B2 |  |  | not observed | completely inhibited | almost completely inhibited | almost completely inhibited | not inhibited | remarkably increased | remarkably increased | about 25% | remarkably decreased | specifically bound | specifically bound | specifically bound | specifically bound | not bound
